Among the data in PMC3285272 are percent of the binding capacity of wild-type protein values, retold here.

The target of the experiment is S. cerevisiae Arf1 (residues 18–181) with a C-terminal GST tag (S. cerevisiae) (UniProt P11076). The experiment in a line: pull-down.
Sequence of S. cerevisiae Arf1 (residues 18–181) with a C-terminal GST tag (S. cerevisiae) (P11076 18-181): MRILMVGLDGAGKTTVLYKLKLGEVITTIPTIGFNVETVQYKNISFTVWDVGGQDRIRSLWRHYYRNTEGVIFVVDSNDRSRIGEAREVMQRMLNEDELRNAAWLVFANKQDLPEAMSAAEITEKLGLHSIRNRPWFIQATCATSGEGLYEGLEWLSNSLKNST

In the case of “γζ-COP dimer with full-length γ-COP L128E (from UniProt P53620 1-874; P35604 1-177) (complex)”, the percent of the binding capacity of wild-type protein is 90%.
